Paper PMC3143144

Columns and labels:
[1] = biological target: αE2 (isolated E2 DNA-recognition helix peptide) (Human papillomavirus type 16?) (UniProt P06790); assay: EMSA
[2] = biological target: αE2 (isolated E2 DNA-recognition helix peptide) (Human papillomavirus type 16?) (UniProt P06790); assay: DNA melting

Chain of UniProt P06790 (P06790 whole entry): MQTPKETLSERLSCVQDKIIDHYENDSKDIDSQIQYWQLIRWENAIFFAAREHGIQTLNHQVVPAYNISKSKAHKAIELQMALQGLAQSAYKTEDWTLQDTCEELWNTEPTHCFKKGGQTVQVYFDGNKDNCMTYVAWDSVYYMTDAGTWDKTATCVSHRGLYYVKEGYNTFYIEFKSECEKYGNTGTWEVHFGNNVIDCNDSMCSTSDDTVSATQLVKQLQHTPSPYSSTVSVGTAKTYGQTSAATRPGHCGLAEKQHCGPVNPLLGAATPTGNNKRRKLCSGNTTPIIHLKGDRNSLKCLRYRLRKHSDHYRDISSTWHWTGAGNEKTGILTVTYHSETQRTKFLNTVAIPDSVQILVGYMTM

Sequence | Kd [1] | binding signal [2]
ACATGGACCTGTCAAGTA (double strand) [Iset non E2-non Dst] | 50 µM | –
GTAGCACAAATCGGTTGA (double strand) [hemisite E2-Dst] | 6.3 µM | 2 C (ΔTm)
